In article PMC5460288, “In vitro assembly of the Rous Sarcoma Virus capsid protein into hexamer tubes at physiological temperature” (Scientific Reports, 2017):

B1: Rous Sarcoma Virus capsid protein (RSV CA), wild type (natural protein)
chain: PVVIKTEGPAWTPLEPKLITRLADTVRTKGLRSPITMAEVEALMSSPLLPHDVTNLMRVILGPAPYALWMDAWGVQLQTVIAAATRDPRHPANGQGRGERTNLNRLKGLADGMVGNPQGQAALLRPGELVAITASALQAFREVARLAEPAGPWADIMQGPSESFVDFANRLIKAVEGSDLPPSARAPVIIDCFRQKSQPDIQQLIRTAPSTLTTPGEIIKYVLDRQKTAPLTDQGIA
notes: capsid protein (CA), the cut product of the Gag polyprotein of Rous sarcoma virus strain Prague C; the naturally occurring species denoted CA (without spacer peptide residues); also called wild type RSV CA; full length RSV CA; not shown: Mycobacterium xenopi GyrA intein (modified), C-terminal, cleaved

Columns and labels:
[1] = molecular target: RSV CA carrying the C-terminal spacer peptide (CA-SP, CA + 12) (Rous Sarcoma Virus (strain Prague C)); test: cryo-EM structure; iterative real space helical reconstruction (SPRING) of one single-layered CA-SP tube, local C6 symmetrization of the turrets, 24 Å (FSC 0.143)
[2] = molecular target: the molecule itself; test: negative-stain transmission electron microscopy; 600–700 μM protein dialyzed 16–24 h (overnight) at 37 °C against neutral pH (pH 7) buffer with 25–150 mM NaCl; uranyl acetate stain

Row | Molecule | stoichiometry N [1] | stoichiometry N [2]
1 | RSV CA carrying the C-terminal spacer peptide (CA-SP, CA + 12) (natural protein) | 6 | –
2 | B1 | – | 6
